# Reference: US20120058906A1 (published 2012)
# T1: rHuman Erythropoietin R/Fc Chimera, CF (R&D Systems Cat#963-ER) (human, UniProt P19235 25-250)
# T1 construct: Bought protein; also called EPOR; EPO R/Fc; Fc part of the bought chimera not given
# T1 sequence: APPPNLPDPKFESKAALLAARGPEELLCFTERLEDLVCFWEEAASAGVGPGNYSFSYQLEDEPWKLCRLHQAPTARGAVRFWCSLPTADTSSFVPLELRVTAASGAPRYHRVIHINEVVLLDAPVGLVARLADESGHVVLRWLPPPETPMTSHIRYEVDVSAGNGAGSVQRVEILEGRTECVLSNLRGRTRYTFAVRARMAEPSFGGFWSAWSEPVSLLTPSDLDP
# B1: Fab VH1-69_IGHD1-1*01_IGHJ6*01 & A17_IGKJ1*01 (Fab, V domains shown)
# VH: QVQLVQSGAEVKKPGSSVKVSCKASGGTFSSYAISWVRQAPGQGLEWMGGIIPIFGTANYAQKFQGRVTITADKSTSTAYMELSSLRSEDTAVYYCARGYNWNDDYYYYYGMDVWGQGTTVTVSS
# VL: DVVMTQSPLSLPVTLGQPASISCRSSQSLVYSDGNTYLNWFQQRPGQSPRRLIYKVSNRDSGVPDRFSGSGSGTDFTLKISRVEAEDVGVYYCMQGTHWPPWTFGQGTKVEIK
# notes: Fab from E. coli; VH joined to the CH1 (Flag and His tags) of Plasmid A, VL to the kappa CL of Plasmid C
# B2: Fab VH2-5_IGHD7-27*01_IGHJ2*01 & L2_IGKJ1*01 (Fab, V domains shown)
# VH: QITLKESGPTLVKPTQTLTLTCTFSGFSLSTSGVGVGWIRQPPGKALEWLALIYWNDDKRYSPSLKSRLTITKDTSKNQVVLTMTNMDPVDTATYYCAHRPNWGYWYFDLWGRGTLVTVSS
# VL: not shown
# B3: Fab VH1-46_IGHD6-13*01_IGHJ4*01 & L2_IGKJ1*01 (Fab, V domains shown)
# VH: QVQLVQSGAEVKKPGASVKVSCKASGYTFTSYYMHWVRQAPGQGLEWMGIINPSGGSTSYAQKFQGRVTMTRDTSTSTVYMELSSLRSEDTAVYYCAREGYSSSWYDYFDYWGQGTLVTVSS
# VL: not shown
# B4: Fab VH1-46_IGHD7-27*01_IGHJ2*01 & A27_IGKJ1*01 (Fab, V domains shown)
# VH: QVQLVQSGAEVKKPGASVKVSCKASGYTFTSYYMHWVRQAPGQGLEWMGIINPSGGSTSYAQKFQGRVTMTRDTSTSTVYMELSSLRSEDTAVYYCARANWGYWYFDLWGRGTLVTVSS
# VL: not shown
# notes: as for B1
# B5: Fab VH1-46_IGHD2-15*01_IGHJ2*01 & L2_IGKJ1*01 (Fab, V domains shown)
# VH: QVQLVQSGAEVKKPGASVKVSCKASGYTFTSYYMHWVRQAPGQGLEWMGIINPSGGSTSYAQKFQGRVTMTRDTSTSTVYMELSSLRSEDTAVYYCAREGYCSGGSCYSYWYFDLWGRGTLVTVSS
# VL: not shown
# Assays:
# [1] = biological target: T2, rHuman HGF R/c-MET/Fc Chimera, CF (R&D Systems Cat#358-MT/CF) (human, UniProt P08581 25-932); assay: MSD ECL multi-spot assay, antigen spotted on plate, Fab 0.65 uM; blank spot 441
# T2 construct: Bought protein; also called HGF R/Fc; hepatocyte growth factor receptor; Fc part of the bought chimera not given
# [2] = biological target: T3, rHuman ErbB2/Fc Chimera, CF (R&D Systems Cat#1129-ER) (human, UniProt P04626 23-652); assay: as above
# T3 construct: Bought protein; also called HER2/neu; human epidermal growth factor 2 receptor; Fc part of the bought chimera not given
# [3] = biological target: T4, rHuman IGF-1 sR (IGF-1 sR), CF (R&D Systems Cat#391-GR) (human, UniProt P08069 31-932); assay: as above
# T4 construct: Bought soluble receptor; also called insulin-like growth factor-1 soluble receptor; IGF-R1
# [4] = biological target: T5, rHuman EGF R/Fc Chimera, CF (R&D Systems Cat#344-ER) (human, UniProt P00533 25-645); assay: as above
# T5 construct: Bought protein; also called epidermal growth factor receptor; Fc part of the bought chimera not given
# [5] = biological target: T6, rHuman P-Cadherin/Fc Chimera, CF (R&D Systems Cat#861-PC) (human, UniProt P22223 108-654); assay: as above
# T6 construct: Bought protein; also called CDH3; Fc part of the bought chimera not given
# [6] = biological target: T7, Recombinant Human DLL4 (R&D Systems Cat#1506-D4/CF) (human, UniProt Q9NR61 27-524); assay: as above
# T7 construct: Bought protein; also called delta-like protein 4; rHuman DLL4
# [7] = biological target: T8, rHuman CD44/Fc Chimera, CF (R&D Systems Cat#3660-CD) (human, UniProt P16070 21-220); assay: as above
# T8 construct: Bought protein; Fc part of the bought chimera not given
# [8] = biological target: T2, rHuman HGF R/c-MET/Fc Chimera, CF (R&D …); assay: MSD ECL multi-spot assay, antigen spotted on plate, Fab 0.03 uM; blank spot 373;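 note: blank spot per well as comparator with Hit at signal to blank ratio of 4 or more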
# [9] = biological target: T3, rHuman ErbB2/Fc Chimera, CF (R&D …); assay: as above
# [10] = biological target: T9, rHuman Notch-1/Fc Chimera, CF (R&D Systems Cat#3647-TK) (human, UniProt P46531 19-526); assay: as above
# T9 construct: Bought protein; Fc part of the bought chimera not given
# [11] = biological target: T4, rHuman IGF-1 sR (IGF-1 sR), CF (R&D …); assay: as above
# [12] = biological target: T5, rHuman EGF R/Fc Chimera, CF (R&D …); assay: as above
# [13] = biological target: T6, rHuman P-Cadherin/Fc Chimera, CF (R&D …); assay: as above
# [14] = biological target: T1, rHuman Erythropoietin R/Fc Chimera, CF …; assay: as above
# [15] = biological target: T7, Recombinant Human DLL4 (R&D Systems …); assay: as above
# [16] = biological target: T8, rHuman CD44/Fc Chimera, CF (R&D Systems …); assay: as above
# [17] = biological target: T9, rHuman Notch-1/Fc Chimera, CF (R&D …); assay: MSD ECL multi-spot assay, antigen spotted on plate, Fab 1.19 uM; blank spot 11543
# [18] = biological target: T4, rHuman IGF-1 sR (IGF-1 sR), CF (R&D …); assay: as above
# [19] = biological target: T5, rHuman EGF R/Fc Chimera, CF (R&D …); assay: as above
# [20] = biological target: T6, rHuman P-Cadherin/Fc Chimera, CF (R&D …); assay: as above
# [21] = biological target: T1, rHuman Erythropoietin R/Fc Chimera, CF …; assay: as above
# [22] = biological target: T7, Recombinant Human DLL4 (R&D Systems …); assay: as above
# [23] = biological target: T2, rHuman HGF R/c-MET/Fc Chimera, CF (R&D …); assay: MSD ECL multi-spot assay, antigen spotted on plate, Fab 0.36 uM; blank spot 928;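 note: blank spot per well as comparator with Hit at signal to blank ratio of 4 or more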
# [24] = biological target: T3, rHuman ErbB2/Fc Chimera, CF (R&D …); assay: as above
# [25] = biological target: T9, rHuman Notch-1/Fc Chimera, CF (R&D …); assay: as above
# [26] = biological target: T4, rHuman IGF-1 sR (IGF-1 sR), CF (R&D …); assay: as above
# [27] = biological target: T5, rHuman EGF R/Fc Chimera, CF (R&D …); assay: as above
# [28] = biological target: T6, rHuman P-Cadherin/Fc Chimera, CF (R&D …); assay: as above
# [29] = biological target: T1, rHuman Erythropoietin R/Fc Chimera, CF …; assay: as above
# [30] = biological target: T7, Recombinant Human DLL4 (R&D Systems …); assay: as above
# [31] = biological target: T8, rHuman CD44/Fc Chimera, CF (R&D Systems …); assay: as above
# [32] = biological target: T4, rHuman IGF-1 sR (IGF-1 sR), CF (R&D …); assay: MSD ECL multi-spot assay, antigen spotted on plate, Fab 0.25 uM; blank spot 3693
# [33] = biological target: T5, rHuman EGF R/Fc Chimera, CF (R&D …); assay: as above
# [34] = biological target: T6, rHuman P-Cadherin/Fc Chimera, CF (R&D …); assay: as above
# [35] = biological target: T1, rHuman Erythropoietin R/Fc Chimera, CF …; assay: as above
# [36] = biological target: T7, Recombinant Human DLL4 (R&D Systems …); assay: as above
binder,measurement,setting,value
B1,ECL signal,[1],437
same,ECL signal,[2],2940
same,ECL signal,[3],656
same,ECL signal,[4],662
same,ECL signal,[5],695
same,ECL signal,[6],849
same,ECL signal,[7],797
B2,ECL signal,[8],311
same,ECL signal,[9],2560
same,ECL signal,[10],563
same,ECL signal,[11],344
same,ECL signal,[12],381
same,ECL signal,[13],352
same,ECL signal,[14],492
same,ECL signal,[15],476
same,ECL signal,[16],421
B3,ECL signal,[17],41700
same,ECL signal,[18],14100
same,ECL signal,[19],32000
same,ECL signal,[20],34600
same,ECL signal,[21],141000
same,ECL signal,[22],39600
B4,ECL signal,[23],1220
same,ECL signal,[24],1470
same,ECL signal,[25],1920
same,ECL signal,[26],1080
same,ECL signal,[27],1400
same,ECL signal,[28],1800
same,ECL signal,[29],2430
same,ECL signal,[30],9080
same,ECL signal,[31],1540
B5,ECL signal,[32],4930
same,ECL signal,[33],88000
same,ECL signal,[34],16100
same,ECL signal,[35],30100
same,ECL signal,[36],14700
